Legend:
[1] = target: T1, full-length human LAG-3 on cells (human, UniProt P18627 23-525); assay: FACS competition on Flp-In-293 cells expressing human LAG-3: biotinylated BMK5 at 1 ug/mL, serially diluted antibody, Streptavidin-PE
T1 construct: Expressed on Flp-In-293, CHO or 293F transfectants; also called hPro1.FL; cell surface human LAG-3
T1 sequence: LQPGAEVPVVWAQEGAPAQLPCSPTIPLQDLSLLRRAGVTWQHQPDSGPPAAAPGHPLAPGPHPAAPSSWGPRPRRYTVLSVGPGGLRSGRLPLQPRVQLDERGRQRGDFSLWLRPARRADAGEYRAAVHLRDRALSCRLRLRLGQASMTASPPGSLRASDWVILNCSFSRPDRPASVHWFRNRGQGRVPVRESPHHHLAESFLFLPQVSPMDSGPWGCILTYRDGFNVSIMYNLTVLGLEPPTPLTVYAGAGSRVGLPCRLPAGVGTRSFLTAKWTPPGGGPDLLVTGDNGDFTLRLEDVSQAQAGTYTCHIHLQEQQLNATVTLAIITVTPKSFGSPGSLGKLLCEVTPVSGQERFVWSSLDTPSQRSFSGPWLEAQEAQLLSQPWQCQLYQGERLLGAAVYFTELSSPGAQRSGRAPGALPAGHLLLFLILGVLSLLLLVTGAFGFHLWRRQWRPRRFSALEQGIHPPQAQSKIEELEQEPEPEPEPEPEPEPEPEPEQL
Procedure: The binding epitope of LAG-3 antibodies was binned against benchmark antibodies BMK1, BMK7 and BMK5 by FACS assay. Flp-In-293 cells expressing human LAG-3 at the cell surface were incubated with biotinylated benchmark antibodies at concentration of 1 μg/mL for 1 hour, followed by the adding of serially diluted LAG-3 antibodies. Streptavidin-PE antibody (Jackson Immunoresearch Lab) was used to detect the binding of benchmark antibodies to cells. The MFI was evaluated by flow cytometry and analyzed by FlowJo.

[2] = target: T2, full-length mouse LAG-3 on cells (mouse, UniProt Q61790 24-521); assay: FACS on murine LAG-3-expressing Flp-In-CHO cells, MFI
T2 construct: also called mPro1.FL; murine LAG-3
T2 sequence: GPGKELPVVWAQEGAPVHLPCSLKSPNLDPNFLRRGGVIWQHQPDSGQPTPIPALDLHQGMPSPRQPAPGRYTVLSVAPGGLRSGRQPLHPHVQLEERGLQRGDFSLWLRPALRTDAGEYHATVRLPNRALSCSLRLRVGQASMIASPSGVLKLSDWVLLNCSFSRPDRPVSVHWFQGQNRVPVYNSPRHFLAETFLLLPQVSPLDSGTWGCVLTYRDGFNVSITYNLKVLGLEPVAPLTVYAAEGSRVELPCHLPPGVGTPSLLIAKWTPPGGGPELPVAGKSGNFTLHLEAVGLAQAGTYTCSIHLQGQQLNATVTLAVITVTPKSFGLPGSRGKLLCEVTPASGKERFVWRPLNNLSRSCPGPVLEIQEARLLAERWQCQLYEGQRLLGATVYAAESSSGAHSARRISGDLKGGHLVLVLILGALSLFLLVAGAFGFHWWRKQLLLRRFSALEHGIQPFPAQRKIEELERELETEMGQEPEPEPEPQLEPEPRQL
Procedure: Cross-reactivity to cynomolgus and murine LAG-3 was measured by FACS. Murine LAG-3-expressing Flp-In-CHO cells or cynomolgus LAG-3-expressing 293F cells were transferred into 96-well U-bottom plates at a density of 1×10⁵ cells/well. Testing antibodies were serially diluted in wash buffer (1×PBS/1%BSA) and incubated with cells at 4° C. for 1 h. After washing with 1×PBS/1%BSA, corresponding secondary antibody was applied and incubated with cells at 4 ° C. in the dark for 1 h. The cells were then washed and resuspended in 1×PBS/1%BSA and then analyzed by flow cytometry.

B1: 1.53.3-uAb-IgG4k (antibody, V domains shown)
VH: QVQLQQWGAGLLKPSETLSLTCGVYGGSFSGYYWSWIRQPPGMGLEWIGEINHRGNTNYNPSLKSRVTISEDTSKNQFSLRLSSVTAADTAVYFCTRGEDYSDYDYYGDFWGQGTLVTVSS
VL: EIVLTQSPATLSLSQGERATLSCRASQSISSYLAWYQQKPGQAPRLLIYAASNRATGIPARFSGSGSGTDFTLTISSLEPEDFAIYYCQQRSNWPLTFGGGTKVEIK
notes: Fully human antibody from OMT rats; IgG4 kappa by its name
With B1 the “IC50 (read off the curve)” value [1] was ~1 nM and the binding result [2] was “no binding (tested: 6.7 nM)”.

Source: patent publication US20200407442A1 (WUXI BIOLOGICS IRELAND, published 2020)
